According to doi:10.1101/2024.10.10.617581:

Target: Ib, membrane-binding component of the Iota toxin from Clostridium perfringens (N-terminal cleaved, active) (Clostridium perfringens)
Assay: cryo-EM structure

Ib, membrane-binding component of the Iota toxin from Clostridium perfringens (N-terminal cleaved, active) (natural protein)
stoichiometry N: 7
